In experiment [1] the target is YFP-D/NP_TAIL, yellow fluorescent protein fused to the nucleoprotein tail of D/bovine/France/2986/20 (influenza D virus D/bovine/France/2986/2012). The experiment is described as follows: SPR. Background: In SPR one partner is held on a chip, and binding of the other changes the refractive index at the surface.
In experiment [2] the target is importin-α7 (Homo sapiens) (UniProt O60684). The note with it: cited from earlier work.
The target in experiment [3] is T1, human importin-α5 without its importin-β binding (IBB) domain (residues 66 to 538) (human, UniProt P52294 66-538).
T1 construct: also called ΔIBB importin-α5; Imp-α5
T1 sequence (P52294 66-538): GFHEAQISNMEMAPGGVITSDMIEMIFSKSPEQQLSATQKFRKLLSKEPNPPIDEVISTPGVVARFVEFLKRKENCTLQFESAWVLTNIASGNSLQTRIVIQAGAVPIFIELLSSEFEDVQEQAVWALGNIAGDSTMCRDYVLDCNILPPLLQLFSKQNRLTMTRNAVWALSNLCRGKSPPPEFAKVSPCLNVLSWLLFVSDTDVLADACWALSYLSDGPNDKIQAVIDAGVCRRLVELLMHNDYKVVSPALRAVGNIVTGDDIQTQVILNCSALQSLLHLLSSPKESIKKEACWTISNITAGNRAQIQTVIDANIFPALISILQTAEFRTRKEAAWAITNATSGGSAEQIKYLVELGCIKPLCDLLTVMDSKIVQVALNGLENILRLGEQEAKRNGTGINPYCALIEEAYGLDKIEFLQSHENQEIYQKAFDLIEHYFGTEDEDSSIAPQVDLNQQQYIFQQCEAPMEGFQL
Kind of experiment: SPR. The note with it: both partners purified.

Experiment [4] concerns the target T2, human importin-α7 without its importin-β binding (IBB) domain (residues 58 to 536) (human, UniProt O60684 58-536).
T2 construct: also called ΔIBB importin-α7; Imp-α7
Kind of experiment: SPR. Particulars: both partners purified.

Experiment [5] addresses T3, human importin-α3 without its importin-β binding (IBB) domain (residues 64 to 521) (human, UniProt O00629 64-521).
T3 construct: also called ΔIBB importin-α3; Imp-α3
T3 sequence (looked up): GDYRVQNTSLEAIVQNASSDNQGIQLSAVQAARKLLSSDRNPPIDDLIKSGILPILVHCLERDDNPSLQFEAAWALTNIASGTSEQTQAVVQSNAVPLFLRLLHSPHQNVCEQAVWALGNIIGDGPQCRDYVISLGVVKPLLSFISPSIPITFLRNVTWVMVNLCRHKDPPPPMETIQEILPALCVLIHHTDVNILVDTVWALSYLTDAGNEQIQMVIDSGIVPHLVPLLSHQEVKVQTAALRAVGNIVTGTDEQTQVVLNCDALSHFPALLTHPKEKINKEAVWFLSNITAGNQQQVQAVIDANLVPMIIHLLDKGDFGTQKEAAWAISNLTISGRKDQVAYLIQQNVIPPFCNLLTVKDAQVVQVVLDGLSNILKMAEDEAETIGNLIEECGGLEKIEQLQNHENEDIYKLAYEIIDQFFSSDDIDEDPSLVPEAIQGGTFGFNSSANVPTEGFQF
The experiment is described as follows: SPR. The note with it: both partners purified.

In experiment [6] the target is T1, human importin-α5 without its …. Kind of experiment: SPR. Particulars: both partners purified. The source holds these as a separate data set.
Experiment [7] has as its target T2, human importin-α7 without its …. The experiment is described as follows: SPR. The note with it: both partners purified. The source holds these as a separate data set.
The target in experiment [8] is T3, human importin-α3 without its …. The experiment is described as follows: SPR. Particulars: both partners purified. The source holds these as a separate data set.

T2 sequence (O60684 58-536): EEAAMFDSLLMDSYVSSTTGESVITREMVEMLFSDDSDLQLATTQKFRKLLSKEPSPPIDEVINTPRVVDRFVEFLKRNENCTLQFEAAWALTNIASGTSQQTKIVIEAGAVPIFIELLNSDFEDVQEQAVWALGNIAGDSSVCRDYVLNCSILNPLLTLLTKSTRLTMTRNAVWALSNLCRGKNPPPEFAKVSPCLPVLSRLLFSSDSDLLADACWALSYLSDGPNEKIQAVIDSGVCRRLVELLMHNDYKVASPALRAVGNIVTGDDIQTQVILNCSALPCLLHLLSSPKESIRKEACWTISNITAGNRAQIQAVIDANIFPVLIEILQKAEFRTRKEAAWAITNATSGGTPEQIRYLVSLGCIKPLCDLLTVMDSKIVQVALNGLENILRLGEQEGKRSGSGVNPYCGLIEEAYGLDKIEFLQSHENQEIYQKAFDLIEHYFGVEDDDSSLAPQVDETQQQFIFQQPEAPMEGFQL

Consider “human importin-α3 without its importin-β binding (IBB) domain (residues 64 to 521) (from UniProt O00629 64-521) (domain or fragment)”, for which, in experiment [1], the Kd – broadly, a measure of binding affinity in units of concentration – stood at 22 nM; the koff (usually the rate constant with which the complex falls apart) amounted to 0.007 s⁻¹; the kon (in general, the second-order rate constant of association) worked out at 2.8e+06 M⁻¹ s⁻¹.
On to “human importin-α5 without its importin-β binding (IBB) domain (residues 66 to 538) (from UniProt P52294 66-538) (domain or fragment)”, for which, in experiment [1], the Kd was 21 nM, the koff amounted to 0.5 s⁻¹ and the on-rate constant (kon) worked out at 1.1e+06 M⁻¹ s⁻¹.
For “influenza B nucleoprotein NPTAIL (30-71) (from UniProt P13885)”, the equilibrium dissociation constant (Kd) in experiment [2] is 844 nM.
In experiment [1], “human importin-α7 without its importin-β binding (IBB) domain (residues 58 to 536) (from UniProt O60684 58-536) (domain or fragment)” returned a Kd of 29 nM, a dissociation rate constant (koff) of 0.104 s⁻¹ and a kon of 5e+06 M⁻¹ s⁻¹.

B1: B/NP_TAIL-YFP, nucleoprotein tail of B/Memphis/13/03 (residues 1 to 71) fused to yellow fluorescent (domain or fragment)
chain: MSNMDIDGINTGTIDKTPEEITSGTSGTTRPIIRPATLAPPSNKRTRNPSPERATTSSEADVGRKTQKKQT
In the case of B1, the off-rate (koff) in experiment [3], in experiment [4] and in experiment [5] was more than 1 s⁻¹ throughout. For the same molecule, the association rate constant (kon) in experiment [3], in experiment [4] and in experiment [5] was more than 1e+07 M⁻¹ s⁻¹ each time. Besides, the Kd was 770 ± 24 nM in experiment [6], 405 ± 5 nM in experiment [7] and 308 ± 106 nM in experiment [8].
